“And” between values parts separate entries of the source, which are not always exact repeats. Equal entries are not always repeated.
What was measured:
[1] = biological target: recombinant soluble homotrimeric HA of A/Hong Kong/2108/03 (H9N2) (Influenza A virus A/Hong Kong/2108/2003 (H9N2)); experiment: HA microarray, control mAb
[2] = biological target: recombinant soluble homotrimeric HA of A/duck/Yangzhou/02/2005 (H8N4) (Influenza A virus A/duck/Yangzhou/02/2005 (H8N4)); experiment: HA microarray, control mAb
[3] = biological target: recombinant soluble homotrimeric HA of A/chicken/Vietnam/NCVD-016/08 (H5N1) (Influenza A virus A/chicken/Vietnam/NCVD-016/2008 (H5N1)); experiment: HA microarray, control mAb
[4] = biological target: recombinant soluble homotrimeric HA of A/Indonesia/5/05 (H5N1) (Influenza A virus A/Indonesia/5/2005 (H5N1)); experiment: HA microarray, control mAb
[5] = biological target: recombinant soluble homotrimeric HA of A/Netherlands/219/03 (H7N7) (Influenza A virus A/Netherlands/219/03 (H7N7)); experiment: HA microarray, control mAb
[6] = biological target: recombinant soluble homotrimeric HA of A/Vietnam/1203/04 (H5N1) (Influenza A virus A/Vietnam/1203/2004 (H5N1)); experiment: HA microarray, control mAb
[7] = biological target: recombinant soluble homotrimeric HA of A/swine/Ontario/01911-2/99 (H4N6) (Influenza A virus A/Swine/Ontario/01911-2/99 (H4N6)); experiment: HA microarray, control mAb
[8] = biological target: recombinant soluble homotrimeric HA of A/California/4/09 (H1N1) (Influenza A virus A/California/04/2009 (H1N1)); experiment: HA microarray, control mAb
[9] = biological target: recombinant soluble homotrimeric HA of A/Japan/305/57 (H2N2) (Influenza A virus A/Japan/305/1957 (H2N2)); experiment: HA microarray, control mAb
[10] = biological target: recombinant soluble homotrimeric HA of A/northern shoveler/California/HKWF115/2007 (H6N1) (Influenza A virus A/northern shoveler/California/HKWF115/2007 (H6N1)); experiment: HA microarray, control mAb
[11] = biological target: recombinant soluble homotrimeric HA of A/Anhui/1/05 (H5N1) (Influenza A virus A/Anhui/1/2005 (H5N1)); experiment: HA microarray, control mAb
[12] = biological target: recombinant soluble homotrimeric HA of A/Egypt/3300-NAMRU3/08 (H5N1) (Influenza A virus A/Egypt/3300-NAMRU3/2008 (H5N1)); experiment: HA microarray, control mAb
[13] = biological target: recombinant soluble homotrimeric HA of A/Wisconsin/67/05 (H3N2) (Influenza A virus A/Wisconsin/67/2005 (H3N2)); experiment: HA microarray, control mAb
[14] = biological target: recombinant soluble homotrimeric HA of A/Solomon Islands/3/06 (H1N1) (Influenza A virus A/Solomon Islands/3/2006 (H1N1)); experiment: HA microarray, control mAb
[15] = biological target: recombinant soluble homotrimeric HA, A/Hong Kong/1073/99 (H9N2) (influenza A virus A/Hong Kong/1073/99 (H9N2)); experiment: microarray, trimeric HA, transfection supernatant
[16] = biological target: recombinant soluble homotrimeric HA, A/Hong Kong/2108/03 (H9N2) (influenza A virus A/Hong Kong/2108/2003 (H9N2)); experiment: microarray, trimeric HA, transfection supernatant
[17] = biological target: recombinant soluble homotrimeric HA, A/Hong Kong/156/97 (H5N1) (influenza A virus A/Hong Kong/156/97 (H5N1)); experiment: microarray, trimeric HA, transfection supernatant
[18] = biological target: recombinant homotrimeric HA, A/swine/Ontario/01911-2/99 H4N6 (Influenza A virus A/swine/Ontario/01911-2/99 (H4N6)); experiment: trimeric HA microarray; transfection supernatant set 5
[19] = biological target: recombinant homotrimeric HA, A/Japan/305/57 H2N2 (Influenza A virus A/Japan/305/57 (H2N2)); experiment: as above
[20] = biological target: recombinant homotrimeric HA, A/Indonesia/5/05 H5N1 (Influenza A virus A/Indonesia/5/05 (H5N1)); experiment: as above
[21] = biological target: recombinant homotrimeric HA, A/Egypt/3300-NAMRU3/08 H5N1 (Influenza A virus A/Egypt/3300-NAMRU3/08 (H5N1)); experiment: as above
[22] = biological target: recombinant homotrimeric HA, A/California/4/09 H1N1 (Influenza A virus A/California/4/09 (H1N1)); experiment: as above
[23] = biological target: recombinant homotrimeric HA, A/Solomon Islands/3/06 H1N1 (Influenza A virus A/Solomon Islands/3/06 (H1N1)); experiment: as above
[24] = biological target: recombinant homotrimeric HA, A/Vietnam/1203/04 H5N1 (Influenza A virus A/Vietnam/1203/04 (H5N1)); experiment: as above
[25] = biological target: recombinant homotrimeric HA, A/South Carolina/1/18 H1N1 (Influenza A virus A/South Carolina/1/18 (H1N1)); experiment: as above
[26] = biological target: recombinant homotrimeric HA, A/Wisconsin/67/05 H3N2 (Influenza A virus A/Wisconsin/67/05 (H3N2)); experiment: as above
[27] = biological target: hemagglutinin (HA) of live influenza A/Wisconsin/67/05 (H3N2) virus (influenza A virus A/Wisconsin/67/2005 (H3N2)); experiment: cell-based or functional assay
[28] = biological target: hemagglutinin (HA) of live influenza A/California/4/09 (H1N1) virus (influenza A virus A/California/04/2009 (H1N1)); experiment: cell-based or functional assay
[29] = biological target: hemagglutinin (HA) of live influenza A/Solomon Islands/3/06 (H1N1) virus (influenza A virus A/Solomon Islands/3/2006 (H1N1)); experiment: cell-based or functional assay
[30] = biological target: Hemagglutinin of influenza A/Solomon Islands/3/06 (H1N1) on whole virions (Influenza A virus A/Solomon Islands/3/2006(H1N1)); note: test concentration or dose not given here
[31] = biological target: Hemagglutinin of influenza A/Wisconsin/67/05 (H3N2) on whole virions (Influenza A virus A/Wisconsin/67/2005(H3N2)); note: test concentration or dose not given here
[32] = biological target: M2 protein of influenza A/Hong Kong/483/97 (H5N1) (influenza A virus A/Hong Kong/483/97 (H5N1)); note: test concentration or dose not given here
[33] = biological target: M2 protein of influenza A/Puerto Rico/8/34 (H1N1), on virus particles (influenza A virus A/Puerto Rico/8/34 (H1N1)) (UniProt P06821)
Throughout, for Virus ELISA OD A450: test concentration or dose not given here.

TCN-032 (8I10) (antibody), sequence (VH): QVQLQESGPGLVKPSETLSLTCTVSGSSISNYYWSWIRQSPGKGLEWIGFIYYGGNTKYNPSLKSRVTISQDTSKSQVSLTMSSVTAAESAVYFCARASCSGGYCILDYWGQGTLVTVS
TCN-032 (8I10) (antibody), sequence (VL): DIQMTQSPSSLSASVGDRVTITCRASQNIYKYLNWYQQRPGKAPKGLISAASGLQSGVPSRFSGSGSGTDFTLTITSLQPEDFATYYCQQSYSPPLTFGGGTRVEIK

TCN-202 (2N9) (antibody)
Trimeric HA Binding RLU [1]: 50 RLU
Trimeric HA Binding RLU [2]: 196 RLU
Trimeric HA Binding RLU [3]: 69 RLU
Trimeric HA Binding RLU [4]: 24 RLU
Trimeric HA Binding RLU [5]: 348 RLU
Trimeric HA Binding RLU [6]: 53 RLU
Trimeric HA Binding RLU [7]: 75 RLU
Trimeric HA Binding RLU [8]: 39 RLU
Trimeric HA Binding RLU [9]: 85 RLU
Trimeric HA Binding RLU [10]: 105 RLU
Trimeric HA Binding RLU [11]: 25 RLU
Trimeric HA Binding RLU [12]: 1280 RLU
Trimeric HA Binding RLU [13]: 252 RLU
Trimeric HA Binding RLU [14]: 46 RLU
Trimeric HA Binding RLU [15]: 57 RLU and 81 RLU
Trimeric HA Binding RLU [16]: 30 RLU and 22 RLU
Trimeric HA Binding RLU [17]: 945 RLU
Trimeric HA Binding: RLU [18]: 2690 RLU
Trimeric HA Binding: RLU [19]: 1880 RLU
Trimeric HA Binding: RLU [20]: 1970 RLU
Trimeric HA Binding: RLU [21]: 13900 RLU
Trimeric HA Binding: RLU [22]: 733 RLU
Trimeric HA Binding: RLU [23]: 525 RLU
Trimeric HA Binding: RLU [24]: 30000 RLU
Trimeric HA Binding: RLU [25]: 5330 RLU
Trimeric HA Binding: RLU [26]: 581 RLU
% Neutralization [27]: 17.8% and 0%
% Neutralization [28]: 0%
% Neutralization [29]: 0% and 7%
OD450 [30]: 0.07 OD450 and 0.08 OD450 and 0.1 OD450
OD450 [31]: 0.07 OD450 and 0.08 OD450

TCN-032 (8I10) (antibody)
FACS M2-HK MFI [32]: 754 MFI and 1080 MFI

mAb 2N9 (antibody)
Virus ELISA OD A450 [33]: 0.15 OD A450 and 0.05 OD A450
FACS M2-HK MFI [32]: 11 MFI and 6 MFI
